Measured values published in article PMC7243059 (ACS nano, 2019).
Values joined by “and” are separate entries in the source; they are usually repeats but may differ in a detail not shown here. Identical values can stand only once. Like-named read-outs stand apart in the source and are kept apart here.

What was measured:
[1] = target: the molecule itself; assay: SAXS
[2] = target: the molecule itself; assay: SAXS; remark: listed apart in the source

B1: Hepatitis B virus capsid protein assembly domain (cp149) dimer (domain or fragment)
chain: MDIDPYKEFGATVELLSFLPSDFFPSVRDLLDTAAALYRDALESPEHCSPHHTALRQAILCWGDLMTLATWVGTNLEDPASRDLVVSYVNTNVGLKFRQLLWFHISCLTFGRETVLEYLVSFGVWIRTPPAYRPPNAPILSTLPETTVV
stoichiometry N [1]: 2 | stoichiometry N [2]: 240 monomers and 180 monomers
